According to paper doi:10.1101/2023.01.13.523903 (bioRxiv, 2023):

Target: Myc-DDK tagged human CD2-associated protein (human, UniProt Q9Y5K6 1-639)
Assay: peptide or protein array

Chain of Myc-DDK tagged human CD2-associated protein (Q9Y5K6 whole entry): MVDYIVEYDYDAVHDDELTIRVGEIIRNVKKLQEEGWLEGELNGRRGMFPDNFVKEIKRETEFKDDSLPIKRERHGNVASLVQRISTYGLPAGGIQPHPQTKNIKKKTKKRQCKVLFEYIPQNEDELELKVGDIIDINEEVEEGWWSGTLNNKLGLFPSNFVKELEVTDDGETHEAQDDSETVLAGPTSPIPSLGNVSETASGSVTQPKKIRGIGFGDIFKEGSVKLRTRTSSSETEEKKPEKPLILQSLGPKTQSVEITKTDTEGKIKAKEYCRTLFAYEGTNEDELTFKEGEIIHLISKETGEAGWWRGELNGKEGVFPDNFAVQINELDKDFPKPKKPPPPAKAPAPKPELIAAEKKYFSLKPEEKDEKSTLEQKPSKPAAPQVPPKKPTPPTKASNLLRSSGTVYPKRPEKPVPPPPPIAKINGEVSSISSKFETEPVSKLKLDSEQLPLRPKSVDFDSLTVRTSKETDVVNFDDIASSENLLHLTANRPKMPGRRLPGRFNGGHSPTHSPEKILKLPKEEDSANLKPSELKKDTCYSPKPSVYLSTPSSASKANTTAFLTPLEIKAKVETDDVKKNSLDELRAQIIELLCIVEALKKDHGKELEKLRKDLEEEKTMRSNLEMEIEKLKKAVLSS

Binder	binding result
EAPQQRPVVPPRRPP [TKS4 peptide 188]	binds
QRPVVPPRRPPPPKK [TKS4 peptide 189]	binds
